In article PMC4660213, “Identification and characterization of multiple rubisco activases in chemoautotrophic bacteria” (Nature Communications, 2015):

Key:
[1] = target: Acidithiobacillus ferrooxidans CbbQ2 (Acidithiobacillus ferrooxidans ATCC 23270) (UniProt B7J5E4); assay: quantitative densitometry of SDS-PAGE; Coomassie-stained SDS–PAGE of the purified complexes (4 µg per lane), assuming equal binding of the dye
[2] = target: Acidithiobacillus ferrooxidans CbbQ2 (Acidithiobacillus ferrooxidans ATCC 23270) (UniProt B7J5E4); assay: SEC + other: glycerol gradient sedimentation; combined Stokes radius/sedimentation analysis: Stokes radius from gel filtration, Svedberg coefficient from 5–30% glycerol gradients in buffer A (1 mg/ml, 35,000 r.p.m., 16 h, 4 °C); M=4,205 (SRs)
[3] = target: Acidithiobacillus ferrooxidans CbbQ2 (Acidithiobacillus ferrooxidans ATCC 23270) (UniProt B7J5E4)
[4] = target: Acidithiobacillus ferrooxidans form I rubisco (L8S8) (Acidithiobacillus ferrooxidans ATCC 23270) (UniProt B7JA24)
[5] = target: Acidithiobacillus ferrooxidans form II rubisco (Acidithiobacillus ferrooxidans ATCC 23270) (UniProt B7J5E3)
[6] = target: AfM with E75 mutated to alanine (Acidithiobacillus ferrooxidans ATCC 23270)

Substance: C-terminally truncated CbbO2 (residues 1–444) (domain or fragment)
- stoichiometry N (CbbO fragments per 6 CbbQ subunits) [1]: 3.5
- stoichiometry N (CbbO fragment per CbbQ hexamer) [2]: 1
- basal ATPase activity of the Q2O2ΔC444 complex (min^−1 protomer CbbQ^−1) [3]: < 1

Substance: CbbQ1-CbbO1 hetero-oligomer (CbbQ6CbbO1) (complex)
- stimulation of Q1O1 ATPase activity (0.27 µM oligomer) by saturating concentrations of stably inhibited AfLS (ER, ECMC) [4]: 2 fold

Substance: CbbQ2-CbbO2 hetero-oligomer (CbbQ6CbbO1) (complex)
- stimulation of Q2O2 ATPase activity (0.27 µM oligomer) by saturating concentrations of stably inhibited AfM (ER, ECMC) [5]: 20 fold
- rubisco activase activity of Q2O2 on AfM with E75 mutated to alanine [6]: 80 % reduction
